According to patent EP4725963A1 (Jiangsu Hengrui Pharmaceuticals Co., Ltd., dated 2026):
Substitutions are numbered along the chain they refer to. Like-named read-outs stand apart in the source and are kept apart here. Each block holds one binder with its values, some of them ahead of it.

Columns and labels:
[1] = molecular target: T1, cynomolgus monkey NPR1 full-length protein overexpressed on CHO-K1 cells (cynomolgus monkey); experiment: flow cytometry on cNPR1-expressing CHO-K1 cells, without ANP
T1 construct: whole, on cells; also called cNPR1-CHOK1; cNPR1 CHO-K1

[2] = molecular target: T2, human NPR1 full-length protein overexpressed on CHO-K1 cells (human, UniProt P16066 33-1061); experiment: flow cytometry on hNPR1-expressing CHO-K1 cells, without ANP
T2 construct: also called hNPR1-CHOK1; hNPR1 CHO-K1
T2 sequence: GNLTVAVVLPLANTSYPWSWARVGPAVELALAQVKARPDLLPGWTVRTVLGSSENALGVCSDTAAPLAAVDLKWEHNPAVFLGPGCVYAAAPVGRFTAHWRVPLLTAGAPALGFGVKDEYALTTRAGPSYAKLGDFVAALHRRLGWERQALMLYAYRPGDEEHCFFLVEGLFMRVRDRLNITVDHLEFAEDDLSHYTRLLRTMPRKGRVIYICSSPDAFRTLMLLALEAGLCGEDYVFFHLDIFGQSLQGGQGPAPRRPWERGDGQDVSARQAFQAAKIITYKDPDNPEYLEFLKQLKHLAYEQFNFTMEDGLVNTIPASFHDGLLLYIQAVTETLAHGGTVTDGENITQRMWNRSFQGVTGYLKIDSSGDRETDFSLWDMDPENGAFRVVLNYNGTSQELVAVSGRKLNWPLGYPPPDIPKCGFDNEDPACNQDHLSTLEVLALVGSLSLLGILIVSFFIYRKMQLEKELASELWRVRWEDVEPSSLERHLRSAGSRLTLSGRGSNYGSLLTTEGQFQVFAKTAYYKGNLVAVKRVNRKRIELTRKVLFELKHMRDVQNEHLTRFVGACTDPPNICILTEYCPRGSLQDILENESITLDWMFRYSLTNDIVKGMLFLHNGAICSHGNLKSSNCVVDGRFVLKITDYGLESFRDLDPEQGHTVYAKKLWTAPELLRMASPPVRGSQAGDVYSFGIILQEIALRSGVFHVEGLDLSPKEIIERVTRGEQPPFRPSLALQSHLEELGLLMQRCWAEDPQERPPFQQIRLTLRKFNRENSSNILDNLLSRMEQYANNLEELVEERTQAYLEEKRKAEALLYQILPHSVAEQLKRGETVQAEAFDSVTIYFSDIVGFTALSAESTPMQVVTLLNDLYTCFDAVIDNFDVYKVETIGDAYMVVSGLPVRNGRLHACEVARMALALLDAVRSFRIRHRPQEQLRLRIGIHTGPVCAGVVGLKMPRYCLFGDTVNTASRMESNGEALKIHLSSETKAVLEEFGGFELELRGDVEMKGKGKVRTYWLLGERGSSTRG

[3] = molecular target: T1, cynomolgus monkey NPR1 full-length …; experiment: flow cytometry on cNPR1-expressing CHO-K1 cells, antibody pre-mixed with 10 nM ANP
[4] = molecular target: T2, human NPR1 full-length protein …; experiment: flow cytometry on hNPR1-expressing CHO-K1 cells, antibody pre-mixed with 10 nM ANP
[5] = molecular target: T2, human NPR1 full-length protein …; experiment: cell-based or functional assay
[6] = molecular target: T2, human NPR1 full-length protein …; experiment: cell-based or functional assay; remark: listed apart in the source
[7] = molecular target: T2, human NPR1 full-length protein …; experiment: cell-based or functional assay; remark: listed apart in the source
[8] = molecular target: T3, hNPR2 (human, UniProt P20594 23-458, limits assumed); experiment: ELISA, plate coated with 4 µg/mL antigen
T3 construct: Commercial protein; construct not described; also called hNPR2 antigen
T3 sequence (looked up): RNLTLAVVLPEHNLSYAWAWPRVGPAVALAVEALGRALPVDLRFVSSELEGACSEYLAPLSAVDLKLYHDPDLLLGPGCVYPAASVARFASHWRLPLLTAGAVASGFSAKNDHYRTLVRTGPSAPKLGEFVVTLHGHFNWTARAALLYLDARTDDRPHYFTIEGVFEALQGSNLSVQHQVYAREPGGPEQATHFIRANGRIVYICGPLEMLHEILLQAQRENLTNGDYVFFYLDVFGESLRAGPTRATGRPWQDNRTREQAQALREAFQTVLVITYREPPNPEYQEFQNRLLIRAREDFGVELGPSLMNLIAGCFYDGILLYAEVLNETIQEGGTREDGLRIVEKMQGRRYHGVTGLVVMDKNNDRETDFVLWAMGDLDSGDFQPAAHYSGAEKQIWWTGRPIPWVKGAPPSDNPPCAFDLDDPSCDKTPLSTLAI

[9] = molecular target: T4, fusion protein of the human NPR1 protein extracellular domain and human-IgG1-Fc (human); experiment: ELISA, plate coated with 4 µg/mL hNPR1 antigen
T4 construct: also called hNPR1-hFc; hNPR1

[10] = molecular target: T2, human NPR1 full-length protein …; experiment: cell-based or functional assay; remark: listed apart in the source
[11] = molecular target: T2, human NPR1 full-length protein …; experiment: cell-based or functional assay; remark: listed apart in the source
[12] = molecular target: T2, human NPR1 full-length protein …; experiment: cell-based or functional assay; remark: listed apart in the source

T4 sequence (chain, as listed by the source limits assumed): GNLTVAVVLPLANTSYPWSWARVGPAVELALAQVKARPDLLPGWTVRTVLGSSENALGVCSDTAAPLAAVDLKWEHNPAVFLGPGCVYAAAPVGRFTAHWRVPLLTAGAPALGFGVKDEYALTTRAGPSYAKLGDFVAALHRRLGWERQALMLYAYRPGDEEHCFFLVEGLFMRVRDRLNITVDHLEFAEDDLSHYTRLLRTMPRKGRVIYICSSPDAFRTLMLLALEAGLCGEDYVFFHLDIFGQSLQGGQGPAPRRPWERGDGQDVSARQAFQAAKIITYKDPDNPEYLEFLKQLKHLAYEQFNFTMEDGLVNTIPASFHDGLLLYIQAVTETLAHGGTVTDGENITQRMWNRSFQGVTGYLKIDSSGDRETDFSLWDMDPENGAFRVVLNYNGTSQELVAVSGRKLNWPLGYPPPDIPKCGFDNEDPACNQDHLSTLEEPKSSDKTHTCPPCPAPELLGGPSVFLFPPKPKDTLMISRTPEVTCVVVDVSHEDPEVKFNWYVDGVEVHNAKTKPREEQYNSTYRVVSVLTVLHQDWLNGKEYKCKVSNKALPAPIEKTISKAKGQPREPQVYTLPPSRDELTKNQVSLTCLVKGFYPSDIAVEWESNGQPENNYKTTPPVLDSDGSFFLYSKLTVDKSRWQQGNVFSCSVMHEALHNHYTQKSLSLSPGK

B1: CHI-135 (antibody, human IgG1, kappa, V domains shown)
VH: DVKLVESGEGLVKPGGSLKLSCVASGFSISTYGMSWVRQTPEKRLEWVAYINSGGNYIYYADTVKGRFTISRDNARNTLYLQMSSLKSEDTAMYYCTRDRTTIVVHWYFDVWGTGTTVTVSS
VL: QIVLTQSPAIMSASPGEKVTMTCSASSSLNFMHWYQQKPGTSPKRWIYDTSKLASGVPARFSGSGSGTSYSLTISSMEAEDAATYYCHQRSSTFGGGTKLELKR
notes: Chimeric human IgG1/kappa; also called NPR1-CHAb-SFM-135; chimeric antibody of murine antibody 135
- EC50 [1]: 3.59 nM
- EC50 [2]: 4.39 nM
- EC50 [3]: 1.63 nM
- EC50 [4]: 2.49 nM

B2: CHI-127 (antibody, human IgG1, kappa, V domains shown)
VH: QAYLQQSGPELVKPGASVKISCKASGYSFTGYFMNWVMQSHGKSLEWIGRINPYNGDTFYNQKFKGKATLTVDKSSSTVHMELRSLASEDSAVYYCARRGYGNRGYWYFDVWGAGTTVTVSS
VL: NIVLTQSPASLAVSLGQRATISCRASESVDSYGNSFMHWYQQKPGQPPKVLIYLASTLESGVPARFSGSGSRTDFTLTIDPVEADDAATYYCQQNNEDPLTFGAGTKLELKR
notes: Chimeric human IgG1/kappa; also called NPR1-CHAb-SFM-127-1; chimeric antibody of murine antibody 127
- cGMP production: EC50 [5]: 42.7 nM
- cGMP production: Emax [5]: 0.43
- cGMP production: Emin [5]: 0.077
- EC50 [1]: 1.19 nM
- EC50 [2]: 1.73 nM
- EC50 [3]: 1.28 nM
- EC50 [4]: 1.74 nM

B5: Hu128H3L1 (antibody, human IgG1, kappa, L234A L235A, V domains shown)
VH: EVQLVQSGAEVKKPGASVKVSCKASGYTFTSYWMHWVRQAPGQGLEWMGRIDPNSGVTKYNEKFKSRVTLTVDKPSSPAYMELSSLRSEDTAVYYCARSSYLGRYFDVWGQGTTVTVSS
VL: EIVLTQSPATLSLSPGERATLSCSATSSVSYMYWYQQKPGQAPRLLIYDTYNLASRIPARFSGSGSGTDYTLTISRLEPEDFAVYYCQQWSSYPPTFGQGTKLEIKR
- cGMP production: EC50 [11]: 5.8 nM

B7: Hu128H3L2 (antibody, human IgG1, kappa, L234A L235A, V domains shown)
VH: B5 VH
VL: B5 VL with Q41S, A42S
- cGMP production: EC50 [11]: 4.6 nM

B8: Hu135H3L1 (antibody, human IgG1, kappa, L234A L235A, V domains shown)
VH: DVKLVESGEGLVKPGGSLRLSCAASGFSISTYGMSWVRQAPGKRLEWVAYINSGGNYIYYADSVKGRFTISRDNAKNSLYLQMNSLRAEDTAVYYCTRDRTTIVVHWYFDVWGQGTTVTVSS
VL: DIQLTQSPSSLSASVGDRVTITCSASSSLNFMHWYQQKPGKSPKRWIYDTSKLASGVPSRFSGSGSGTDYTLTISSLQPEDFATYYCHQRSSTFGGGTKVEIKR
notes: Humanized, human IgG1 LALA/kappa; also called Hul35H3L1
- cGMP production: EC50 [12]: 171 nM
- cGMP production: Emax [12]: 0.43
- cGMP production: Emin [12]: 0.179
- Ratio (without ANP) of NPR1 antigens remaining on the cell surface after endocytosis to the initial number, 10 min, 20 µg/mL [7]: 0.85 ratio
- Ratio (without ANP) of NPR1 antigens remaining on the cell surface after endocytosis to the initial number, 1 h, 20 µg/mL [7]: 0.67 ratio
- Ratio (without ANP) of NPR1 antigens remaining on the cell surface after endocytosis to the initial number, 7 hrs, 20 µg/mL [7]: 0.63 ratio
- Ratio (without ANP) of NPR1 antigens remaining on the cell surface after endocytosis to the initial number, 24 hrs, 20 µg/mL [7]: 0.76 ratio
- binding result [8]: no binding (tested: 20 µg/mL (highest concentration))
- EC50 [9]: 0.02 nM

The next lines start with results.

- cGMP production: EC50 [6]: 7.9 nM
- Ratio (without ANP) of NPR1 antigens remaining on the cell surface after endocytosis to the initial number, 10 min, 20 µg/mL [7]: 1.3 ratio
- Ratio (without ANP) of NPR1 antigens remaining on the cell surface after endocytosis to the initial number, 1 h, 20 µg/mL [7]: 0.91 ratio
- Ratio (without ANP) of NPR1 antigens remaining on the cell surface after endocytosis to the initial number, 7 hrs, 20 µg/mL [7]: 0.96 ratio
- Ratio (without ANP) of NPR1 antigens remaining on the cell surface after endocytosis to the initial number, 24 hrs, 20 µg/mL [7]: 0.82 ratio
- EC50 [9]: 1.84 nM
B3: Hu128H3L1-6 (antibody, human IgG1, kappa, L234A L235A, V domains shown)
VH: B5 VH
VL: B5 VL with S22K, A54G
notes: Humanized, human IgG1 LALA/kappa
- binding result [8]: no binding (tested: 20 µg/mL (highest concentration))

- cGMP production: EC50 [10]: 40.9 nM
B4: Hu140H5L5 (antibody, human IgG1, kappa, L234A L235A, V domains shown)
VH: B5 VH with E1Q, S100G, Y101G, G103R
VL: B5 VL with T26S, R56G, I57V, D69S, Q99A

- cGMP production: EC50 [10]: 36 nM
- Ratio (without ANP) of NPR1 antigens remaining on the cell surface after endocytosis to the initial number, 10 min, 20 µg/mL [7]: 1.31 ratio
- Ratio (without ANP) of NPR1 antigens remaining on the cell surface after endocytosis to the initial number, 1 h, 20 µg/mL [7]: 0.86 ratio
- Ratio (without ANP) of NPR1 antigens remaining on the cell surface after endocytosis to the initial number, 7 hrs, 20 µg/mL [7]: 1.11 ratio
- Ratio (without ANP) of NPR1 antigens remaining on the cell surface after endocytosis to the initial number, 24 hrs, 20 µg/mL [7]: 1.02 ratio
- EC50 [9]: 8.65 nM
B6: Hu140H5L5-11 (antibody, human IgG1, kappa, L234A L235A, V domains shown)
VH: B5 VH with E1Q, S100G, Y101G, G103R
VL: B5 VL with T20Q, T26S, R56G, I57V, A59D, D69S, Q99A
notes: as for B3
- binding result [8]: no binding (tested: 20 µg/mL (highest concentration))
